According to IntAct's records for PubMed 25225338:

Biological target: mare1_human MAPRE1 (UniProt Q15691)
Sequence (Q15691 whole entry): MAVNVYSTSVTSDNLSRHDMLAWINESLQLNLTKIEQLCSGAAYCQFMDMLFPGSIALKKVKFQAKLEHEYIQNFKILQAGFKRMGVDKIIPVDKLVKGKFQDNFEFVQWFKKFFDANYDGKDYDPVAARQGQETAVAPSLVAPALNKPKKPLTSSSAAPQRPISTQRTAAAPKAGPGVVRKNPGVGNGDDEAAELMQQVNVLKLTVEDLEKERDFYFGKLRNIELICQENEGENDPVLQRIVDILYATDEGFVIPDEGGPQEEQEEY

Row | Substance | effect of a mutation on the interaction
1 | Desmoplakin (Homo sapiens), P15924-2 I533T | decreasing interaction strength
2 | Desmoplakin (Homo sapiens), P15924-2 N458Y | decreasing interaction strength
